Measured values published in patent US20200123264A1 (Regeneron, published 2020).
One block for each binder: values may come before it.

What was measured:
human LEPR FNIII-MMH = molecular target: T1, human LEPR FNIII-MMH (human, UniProt P48357 636-839, limits assumed); test: Luminex, myc-captured LEPR protein on beads, Ab 5 µg/mL
T1 construct: domain: FNIII; Transiently expressed, captured from supernatant on anti-myc beads
T1 sequence (looked up): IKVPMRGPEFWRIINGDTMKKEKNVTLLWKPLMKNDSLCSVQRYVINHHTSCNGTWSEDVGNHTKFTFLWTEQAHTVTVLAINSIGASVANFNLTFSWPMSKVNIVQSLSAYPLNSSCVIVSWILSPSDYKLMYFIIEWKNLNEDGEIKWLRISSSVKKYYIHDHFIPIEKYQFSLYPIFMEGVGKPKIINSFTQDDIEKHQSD
Method: Aliquots of microspheres with immobilized anti-myc monoclonal antibodies, prepared as described above, were added individually to 1 mL of the each of these protein supernatants. The microspheres were gently mixed, incubated for two hours at 25° C., washed twice with 1 mL of DBPS, centrifuged to remove the supernatant and finally resuspended in 1 mL of DPBS buffer. Forty eight μL of anti-myc IgG coupled microspheres from individual reactions with full length human LEPR and with each of the human LEPR domain proteins were withdrawn and mixed together in 3.6 mL of PBS+20 mg/mL BSA+0.05% sodium azide (blocking buffer).
From this mixed pool, 75 μL of microspheres were plated per well on a 96 well filter plate (Millipore, Cat. No: MSBVN1250) and mixed with 25 μL of individual anti-human LEPR monoclonal antibodies (0.5 or 5 μg/mL), incubated for two hours at 25° C. and then washed twice with 200 μL of DPBS with 0.05% Tween 20 (washing buffer). […] After 30 minutes, the samples were washed twice with 200 μL of washing buffer and resuspended in 150 μL of wash buffer. The Median Fluorescence intensity (MFI) of the microspheres was measured in a Luminex Analyzer.

[1] = molecular target: T2, recombinant rat LEPR extracellular domain expressed with a C-terminal myc-myc-hexahistidine tag (rat, UniProt Q62959 22-839); test: SPR, mAb captured, 37 C
T2 construct: Monomeric construct; also called rLEPR.MMH; rLEPR-MMH
T2 sequence (Q62959 other isoform, or with tags, fused parts or gaps): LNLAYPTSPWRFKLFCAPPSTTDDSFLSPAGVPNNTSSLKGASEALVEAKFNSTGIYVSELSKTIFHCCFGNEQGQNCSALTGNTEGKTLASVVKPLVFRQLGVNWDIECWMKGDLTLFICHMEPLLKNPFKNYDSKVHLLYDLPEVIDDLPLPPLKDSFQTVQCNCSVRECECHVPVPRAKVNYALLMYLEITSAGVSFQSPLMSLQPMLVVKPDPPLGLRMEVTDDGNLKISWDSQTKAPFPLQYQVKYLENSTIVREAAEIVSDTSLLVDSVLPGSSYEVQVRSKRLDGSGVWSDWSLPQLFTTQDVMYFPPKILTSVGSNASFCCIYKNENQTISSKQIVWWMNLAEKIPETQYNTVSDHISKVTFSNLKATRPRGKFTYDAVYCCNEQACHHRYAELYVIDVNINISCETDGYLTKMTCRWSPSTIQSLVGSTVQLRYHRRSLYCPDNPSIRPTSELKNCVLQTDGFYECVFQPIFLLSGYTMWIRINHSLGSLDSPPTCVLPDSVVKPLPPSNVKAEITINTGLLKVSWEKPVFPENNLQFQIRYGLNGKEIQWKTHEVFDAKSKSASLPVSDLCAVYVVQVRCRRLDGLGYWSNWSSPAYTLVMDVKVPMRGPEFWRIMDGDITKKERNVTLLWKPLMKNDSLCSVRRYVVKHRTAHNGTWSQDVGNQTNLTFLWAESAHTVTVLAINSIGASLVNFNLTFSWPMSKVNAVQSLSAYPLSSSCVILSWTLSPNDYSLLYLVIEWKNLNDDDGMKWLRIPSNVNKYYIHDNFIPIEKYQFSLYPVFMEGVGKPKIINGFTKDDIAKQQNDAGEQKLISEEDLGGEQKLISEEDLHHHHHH
Method: (§1) Equilibrium dissociation constants (KD values) for antigen binding to purified anti-LEPR monoclonal antibodies of the invention were determined using a real-time surface plasmon resonance biosensor using a Biacore 4000 instrument. All binding studies were performed in running buffer containing 10 mM HEPES, 150 mM NaCl, 3 mM EDTA, and 0.05% v/v Surfactant Tween-20, pH 7.4 (HBS-ET running buffer) at 25° C. and 37° C. The Biacore sensor surface was first derivatized by amine coupling with a monoclonal mouse anti-human Fc antibody (GE, # BR-1008-39) to the capture anti-LEPR monoclonal antibodies. The LEPR reagents tested for binding to the anti-LEPR monoclonal antibodies included recombinant human LEPR extracellular domain expressed with a C-terminal myc-myc-hexahistidine tag (hLEPR.MMH; SEQ ID NO:90), recombinant cynomolgus monkey LEPR extracellular domain expressed with a C-terminal myc-myc-hexahistidine tag (mfLEPR.MMH; SEQ ID NO:93), recombinant mouse LEPR extracellular domain expressed with a C-terminal myc-myc-hexahistidine tag (mLEPR.MMH; SEQ ID NO:94), recombinant rat LEPR extracellular domain expressed with a C-terminal myc-myc-hexahistidine tag (rLEPR.MMH; SEQ ID NO:95), and recombinant human LEPR extracellular domain expressed with a C-terminal mouse IgG2a Fc tag (hLEPR.mFc; SEQ ID NO:91). LEPR constructs that include MMH tags are monomeric LEPR constructs, and LEPR constructs including an mFc tag are dimeric LEPR constructs. […] The dissociation of monoclonal antibody bound LEPR reagent was monitored for 10 minutes in HBS-ET running buffer. Kinetic association (10 and dissociation (10 rate constants were determined by fitting the real-time binding sensorgrams to a 1:1 binding model with mass transport limitation using Scrubber 2.0c curve-fitting software. Binding dissociation equilibrium constants (KD) and dissociative half-lives (t½) were calculated from the kinetic rate constants as: […]

[2] = molecular target: T3, recombinant cynomolgus monkey LEPR extracellular domain expressed with a C-terminal myc-myc-hexahistidine tag (cynomolgus monkey, UniProt Q9MYL0 22-837 (rhesus entry)); test: SPR, mAb captured, 37 C
T3 construct: Monomeric construct; also called mfLEPR.MMH; mfLEPR-MMH
Method: as §1

[3] = molecular target: T4, recombinant human LEPR extracellular domain expressed with a C-terminal mouse IgG2a Fc tag (human); test: SPR, mAb captured, 37 C
T4 construct: Dimeric construct; also called hLEPR.mFc; hLEPR-mFc
T4 chain: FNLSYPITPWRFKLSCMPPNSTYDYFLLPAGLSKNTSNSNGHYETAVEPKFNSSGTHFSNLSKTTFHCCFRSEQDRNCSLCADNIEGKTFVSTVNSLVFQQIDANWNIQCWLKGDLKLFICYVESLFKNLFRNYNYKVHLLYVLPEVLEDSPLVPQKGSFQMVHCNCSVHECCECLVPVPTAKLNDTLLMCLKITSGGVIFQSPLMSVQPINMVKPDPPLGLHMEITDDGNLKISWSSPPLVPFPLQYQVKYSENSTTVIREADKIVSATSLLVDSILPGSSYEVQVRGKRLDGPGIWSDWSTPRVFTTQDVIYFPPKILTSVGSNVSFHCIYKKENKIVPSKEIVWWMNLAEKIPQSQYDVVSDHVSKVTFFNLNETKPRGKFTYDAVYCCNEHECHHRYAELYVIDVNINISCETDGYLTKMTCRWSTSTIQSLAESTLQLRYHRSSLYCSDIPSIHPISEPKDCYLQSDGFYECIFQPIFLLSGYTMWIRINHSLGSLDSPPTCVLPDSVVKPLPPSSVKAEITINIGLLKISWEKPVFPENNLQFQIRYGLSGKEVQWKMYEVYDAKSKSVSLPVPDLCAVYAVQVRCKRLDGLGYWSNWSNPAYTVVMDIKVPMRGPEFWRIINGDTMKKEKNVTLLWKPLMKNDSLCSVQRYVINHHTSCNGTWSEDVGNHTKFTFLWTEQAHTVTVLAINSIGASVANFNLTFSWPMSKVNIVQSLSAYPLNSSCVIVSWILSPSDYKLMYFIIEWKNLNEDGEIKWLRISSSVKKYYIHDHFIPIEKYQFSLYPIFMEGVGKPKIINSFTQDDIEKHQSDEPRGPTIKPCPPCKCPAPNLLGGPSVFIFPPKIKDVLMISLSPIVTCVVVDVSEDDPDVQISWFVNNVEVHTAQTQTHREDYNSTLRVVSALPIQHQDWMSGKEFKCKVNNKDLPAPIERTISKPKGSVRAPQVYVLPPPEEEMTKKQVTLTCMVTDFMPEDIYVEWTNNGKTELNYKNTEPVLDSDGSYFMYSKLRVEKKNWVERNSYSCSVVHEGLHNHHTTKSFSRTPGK
Method: as §1

B5: H4H17322P2 (antibody, human IgG4, V domains shown)
VH: QLQLQESGPGLVKPSETLSLTCTVSGASISSSRFYGGWIRQPPGKGLEWIGDIYYSGNTYYNPSLQSRVTISVDTSKNQFSLKLSSVTAADTAVYYCARHLMITFGGLIVEGFDIWGQGTMVTVSS
VL: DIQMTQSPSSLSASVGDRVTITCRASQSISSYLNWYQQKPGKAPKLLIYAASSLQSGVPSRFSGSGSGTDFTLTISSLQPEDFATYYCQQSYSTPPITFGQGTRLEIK
notes: H4H prefix: human IgG4 Fc
Luminex MFI (human LEPR FNIII-MMH): 23 MFI
100 nM rLEPR-MMH Bound (RU) [1]: 9 RU
Kd [1]: 0.352 µM
koff [1]: 0.0328 s⁻¹
kon [1]: 93200 M⁻¹ s⁻¹
t½ [1]: 0.4 min
100 nM mfLEPR-MMH Bound (RU) [2]: 142 RU
Kd [2]: 0.00772 µM
koff [2]: 0.0011 s⁻¹
kon [2]: 143000 M⁻¹ s⁻¹
t½ [2]: 10 min
100 nM hLEPR-mFc Bound (RU) [3]: 105 RU
Kd [3]: 0.00331 µM
koff [3]: 0.00044 s⁻¹
kon [3]: 133000 M⁻¹ s⁻¹
t½ [3]: 26 min

B6: H4H18457P2 (antibody, human IgG4, V domains shown)
VH: EVQLVESGGSVVRPGESLRLSCAASGFTFDDYGMSWVRQAPGKGLEWVSGISWNGGITVYADSVKGRFTVSRDNAKNSLYLQMNSLRAEDTALYHCARARYGGADYWGQGTLVTVSS
VL: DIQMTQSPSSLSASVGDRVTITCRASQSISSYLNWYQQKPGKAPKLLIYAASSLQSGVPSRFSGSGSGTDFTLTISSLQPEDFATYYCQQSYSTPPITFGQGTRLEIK
notes: H4H prefix: human IgG4 Fc
Luminex MFI (human LEPR FNIII-MMH): 1190 MFI
100 nM rLEPR-MMH Bound (RU) [1]: 16 RU
Kd [1]: 0.58 µM
koff [1]: 0.0175 s⁻¹
kon [1]: 30200 M⁻¹ s⁻¹
t½ [1]: 0.7 min
100 nM mfLEPR-MMH Bound (RU) [2]: 117 RU
Kd [2]: 0.03 µM
koff [2]: 0.0104 s⁻¹
kon [2]: 347000 M⁻¹ s⁻¹
t½ [2]: 1.1 min
100 nM hLEPR-mFc Bound (RU) [3]: 166 RU
Kd [3]: 0.00127 µM
koff [3]: 0.000704 s⁻¹
kon [3]: 556000 M⁻¹ s⁻¹
t½ [3]: 16 min

B7: H4H18466P2 (antibody, human IgG4, V domains shown)
VH: EVQLVESGGGLVQPGGSLRLSCTASGFTFSSYGLHWVRQAPGKGLEYVSSINHNGGSKYYADSVKGRFTISRDNSKNTLFLQMGSLKTEDMAVYYCARDLFLEWLFHGFDIWGQGTMVTVSS
VL: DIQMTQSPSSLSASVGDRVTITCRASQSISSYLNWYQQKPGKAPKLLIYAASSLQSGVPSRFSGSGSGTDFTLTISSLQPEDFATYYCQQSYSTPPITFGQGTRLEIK
notes: H4H prefix: human IgG4 Fc
Luminex MFI (human LEPR FNIII-MMH): 457 MFI
100 nM rLEPR-MMH Bound (RU) [1]: 6 RU
Kd [1]: 0.771 µM
koff [1]: 0.0252 s⁻¹
kon [1]: 32600 M⁻¹ s⁻¹
t½ [1]: 0.5 min
100 nM mfLEPR-MMH Bound (RU) [2]: 27 RU
Kd [2]: 0.164 µM
koff [2]: 0.0138 s⁻¹
kon [2]: 84300 M⁻¹ s⁻¹
t½ [2]: 0.8 min
100 nM hLEPR-mFc Bound (RU) [3]: 52 RU
Kd [3]: 0.00886 µM
koff [3]: 0.00052 s⁻¹
kon [3]: 58700 M⁻¹ s⁻¹
t½ [3]: 22 min

B8: H4H18464P2 (antibody, human IgG4, V domains shown)
VH: QVQLVQSGPEVKKPGASVKVSCKGSGYTFSWYGISWIRQAPGHGLEWMGWISASSGNTRFAQKVQGRLTMTTDTSTSTAYMELRSLRSDDTAVYYCARTGTRPFDYWGQGTLVTVSS
VL: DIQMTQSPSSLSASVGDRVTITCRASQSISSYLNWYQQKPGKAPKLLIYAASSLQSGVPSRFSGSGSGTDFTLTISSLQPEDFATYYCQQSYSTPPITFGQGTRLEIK
notes: H4H prefix: human IgG4 Fc
Luminex MFI (human LEPR FNIII-MMH): 23 MFI
100 nM rLEPR-MMH Bound (RU) [1]: 1 RU
100 nM mfLEPR-MMH Bound (RU) [2]: 13 RU
Kd [2]: 0.215 µM
koff [2]: 0.00841 s⁻¹
kon [2]: 39200 M⁻¹ s⁻¹
t½ [2]: 1.4 min
100 nM hLEPR-mFc Bound (RU) [3]: 105 RU
Kd [3]: 0.00128 µM
koff [3]: 0.000517 s⁻¹
kon [3]: 404000 M⁻¹ s⁻¹
t½ [3]: 22 min

Second part, the binder after the results:

Luminex MFI (human LEPR FNIII-MMH): 10 MFI
100 nM rLEPR-MMH Bound (RU) [1]: 0 RU
100 nM mfLEPR-MMH Bound (RU) [2]: 66 RU
Kd [2]: 0.101 µM
koff [2]: 0.00724 s⁻¹
kon [2]: 71500 M⁻¹ s⁻¹
t½ [2]: 1.6 min
100 nM hLEPR-mFc Bound (RU) [3]: 181 RU
Kd [3]: 0.000527 µM
koff [3]: 0.000112 s⁻¹
kon [3]: 212000 M⁻¹ s⁻¹
t½ [3]: 103 min
B1: H4H18440P2 (antibody, human IgG4, V domains shown)
VH: QVQLVESGGGMVKPGGSLRLSCAASGFTFSDYYMSWIRQAPGKGLEWISHISITGSTIYYADSVKGRFTISRDNAKNSLYLEMNRLRDEDTAVYYCTRDEPDIVLVRYGMDVWGQGTTVTVSS
VL: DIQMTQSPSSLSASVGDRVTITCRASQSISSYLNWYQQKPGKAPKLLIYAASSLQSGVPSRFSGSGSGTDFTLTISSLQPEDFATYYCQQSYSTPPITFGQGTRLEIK
notes: H4H prefix: human IgG4 Fc

Luminex MFI (human LEPR FNIII-MMH): 1590 MFI
100 nM rLEPR-MMH Bound (RU) [1]: 10 RU
Kd [1]: 0.629 µM
koff [1]: 0.0193 s⁻¹
kon [1]: 30700 M⁻¹ s⁻¹
t½ [1]: 0.6 min
100 nM mfLEPR-MMH Bound (RU) [2]: 58 RU
Kd [2]: 0.147 µM
koff [2]: 0.0127 s⁻¹
kon [2]: 86900 M⁻¹ s⁻¹
t½ [2]: 0.9 min
100 nM hLEPR-mFc Bound (RU) [3]: 88 RU
Kd [3]: 0.0043 µM
koff [3]: 0.000556 s⁻¹
kon [3]: 129000 M⁻¹ s⁻¹
t½ [3]: 21 min
B2: H4H18437P2 (antibody, human IgG4, V domains shown)
VH: QVQLVESGGGVVQPGRSLRLSCAASGFTFSSYGIHWVRQAPGKGLEWVAVISYDGNNKYYADSVKGRFTISRDNSKNTLYLQMNSLRAEDTAVYYCAKDLFLEWLFHGMGVWGQGTTVTVSS
VL: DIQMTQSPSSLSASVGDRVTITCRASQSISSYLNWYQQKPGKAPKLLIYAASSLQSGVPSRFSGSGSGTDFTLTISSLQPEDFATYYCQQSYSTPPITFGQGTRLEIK
notes: H4H prefix: human IgG4 Fc

Luminex MFI (human LEPR FNIII-MMH): 13 MFI
100 nM rLEPR-MMH Bound (RU) [1]: 0 RU
100 nM mfLEPR-MMH Bound (RU) [2]: 14 RU
Kd [2]: 0.169 µM
koff [2]: 0.00792 s⁻¹
kon [2]: 46900 M⁻¹ s⁻¹
t½ [2]: 1.5 min
100 nM hLEPR-mFc Bound (RU) [3]: 67 RU
Kd [3]: 0.0151 µM
koff [3]: 0.000923 s⁻¹
kon [3]: 60900 M⁻¹ s⁻¹
t½ [3]: 13 min
B3: H4H18439P2 (antibody, human IgG4, V domains shown)
VH: QLQLQESGPGLVKPSETLSLTCIVSGGDITSSSYYWNWIRQPPGKGLEWIGNIYYSGSTNYNPSLKSRVTISIDTSKSQFSLKLRSVTAADTAVYYCARLLRYFDWSKGYLDYWGQGTLVTVSS
VL: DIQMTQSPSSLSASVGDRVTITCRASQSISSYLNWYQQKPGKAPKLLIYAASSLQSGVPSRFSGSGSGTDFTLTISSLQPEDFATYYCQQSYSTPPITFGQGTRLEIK
notes: H4H prefix: human IgG4 Fc

Luminex MFI (human LEPR FNIII-MMH): 581 MFI
100 nM mfLEPR-MMH Bound (RU) [2]: 28 RU
Kd [2]: 0.261 µM
koff [2]: 0.0337 s⁻¹
kon [2]: 129000 M⁻¹ s⁻¹
t½ [2]: 0.3 min
100 nM hLEPR-mFc Bound (RU) [3]: 84 RU
Kd [3]: 0.00426 µM
koff [3]: 0.000543 s⁻¹
kon [3]: 128000 M⁻¹ s⁻¹
t½ [3]: 21 min
B4: H4H18462P2 (antibody, human IgG4, V domains shown)
VH: EVQLVESGGDLVQPGRSLRLSCAASGFTFSSFAMSWVRQAPGRGLEWVSSLSDSGDNTYYADSVKGRFTISRDNSKNTLYLQMNNLRAEDTAVYYCAKDLFSGWLFHGFDVWGQGTMVTVSS
VL: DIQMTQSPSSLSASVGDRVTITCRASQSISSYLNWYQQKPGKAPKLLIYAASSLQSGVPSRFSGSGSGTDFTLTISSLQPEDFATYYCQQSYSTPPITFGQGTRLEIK
notes: H4H prefix: human IgG4 Fc
